What all share (conditions): both partners purified
Experiment [1] addresses T1, NOT10:GST-NOT11 complex (Hs NOT10-L with GST-NOT11-C) (human, UniProt Q9H9A5 25-707; Q9UKZ1 257-498).
T1 construct: human NOT10 (CNOT10), NOT10-L, residues D25–Q707, from pnYC-vM with a TEV-cleavable MBP tag; human NOT11 (CNOT11), NOT11-C, residues D257–D498; also called NOT10:NOT11 heterodimer; source: E. coli BL21 (DE3) Star, co-expressed, purified (glutathione agarose, TEV cleavage of MBP, HiTrap Heparin, Superdex 200); not shown: MBP, N-terminal, cleaved; GST, N-terminal, kept
Nature of the experiment: pull-down; purified proteins; GST-NOT11-C alone or the NOT10:GST-NOT11 complex as bait, NOT1-N as prey (Fig. 3g).

In experiment [2] the target is T2, MBP-Hs NOT10-L (residues D25–Q707) (human, UniProt Q9H9A5 25-707).
T2 construct: human NOT10 (CNOT10), residues D25–Q707; The MBP tag is HRV3C-cleavable (plasmid pnYC-pM); no cleavage step is described; also called isolated NOT10; source: E. coli BL21 (DE3) Star, purified (amylose resin, HiTrap Q, Superdex 200)
Nature of the experiment: pull-down; GST pulldown with recombinant proteins; GST-NOT11 constructs as bait, MBP-tagged NOT10 constructs as prey (Fig. 3b–f; human and Drosophila).

Experiment [3] has as its target T3, MBP-Hs NOT10-C (residues T351–Q707) (human, UniProt Q9H9A5 351-707).
T3 construct: human NOT10 (CNOT10), residues T351–Q707; The MBP tag is HRV3C-cleavable; no cleavage step is described; also called C-terminal portion of NOT10; source: E. coli BL21 (DE3) Star, purified (amylose resin, HiTrap Q, Superdex 200)
The experiment is described as above.

T3 sequence (Q9H9A5 351-707): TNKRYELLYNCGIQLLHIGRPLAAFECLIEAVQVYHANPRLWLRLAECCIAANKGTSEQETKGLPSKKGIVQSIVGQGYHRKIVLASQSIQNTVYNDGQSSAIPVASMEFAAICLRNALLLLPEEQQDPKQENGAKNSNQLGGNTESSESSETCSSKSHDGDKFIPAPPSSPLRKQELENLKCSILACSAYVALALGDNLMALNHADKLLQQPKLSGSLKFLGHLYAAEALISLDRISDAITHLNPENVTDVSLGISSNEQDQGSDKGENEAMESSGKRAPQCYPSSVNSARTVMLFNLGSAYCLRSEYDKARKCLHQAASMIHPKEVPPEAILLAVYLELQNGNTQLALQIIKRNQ
T2 sequence (Q9H9A5 25-707): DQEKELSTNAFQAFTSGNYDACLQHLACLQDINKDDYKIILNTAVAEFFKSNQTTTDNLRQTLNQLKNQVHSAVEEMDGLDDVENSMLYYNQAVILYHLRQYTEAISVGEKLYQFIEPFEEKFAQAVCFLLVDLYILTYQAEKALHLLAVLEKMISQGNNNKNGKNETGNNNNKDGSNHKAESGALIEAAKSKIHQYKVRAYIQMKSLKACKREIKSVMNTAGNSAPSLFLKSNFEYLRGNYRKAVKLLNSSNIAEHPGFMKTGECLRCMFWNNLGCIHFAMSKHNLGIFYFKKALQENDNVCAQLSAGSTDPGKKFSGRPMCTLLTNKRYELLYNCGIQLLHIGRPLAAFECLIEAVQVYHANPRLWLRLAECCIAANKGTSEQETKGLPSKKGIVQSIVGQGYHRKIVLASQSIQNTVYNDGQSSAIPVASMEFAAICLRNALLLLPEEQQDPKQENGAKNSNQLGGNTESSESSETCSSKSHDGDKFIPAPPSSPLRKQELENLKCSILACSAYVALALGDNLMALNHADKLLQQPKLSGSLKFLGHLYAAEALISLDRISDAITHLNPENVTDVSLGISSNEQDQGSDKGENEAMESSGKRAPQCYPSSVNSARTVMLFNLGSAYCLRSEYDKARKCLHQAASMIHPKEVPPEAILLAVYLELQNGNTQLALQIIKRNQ
T1 sequence (Q9H9A5 25-707, chain 1 of 2, other chains not shown): as the sequence (Q9H9A5 25-707) above

B1: Hs NOT1-N (residues D4–N682) (domain or fragment, human, UniProt A5YKK6 4-682, looked up)
chain: DSLSLALSQISYLVDNLTKKNYRASQQEIQHIVNRHGPEADRHLLRCLFSHVDFSGDGKSSGKDFHQTQFLIQECALLITKPNFISTLSYAIDNPLHYQKSLKPAPHLFAQLSKVLKLSKVQEVIFGLALLNSSSSDLRGFAAQFIKQKLPDLLRSYIDADVSGNQEGGFQDIAIEVLHLLLSHLLFGQKGAFGVGQEQIDAFLKTLRRDFPQERCPVVLAPLLYPEKRDILMDRILPDSGGVAKTMMESSLADFMQEVGYGFCASIEECRNIIVQFGVREVTAAQVARVLGMMARTHSGLTDGIPLQSISAPGSGIWSDGKDKSDGAQAHTWNVEVLIDVLKELNPSLNFKEVTYELDHPGFQIRDSKGLHNVVYGIQRGLGMEVFPVDLIYRPWKHAEGQLSFIQHSLINPEIFCFADYPCHTVATDILKAPPEDDNREIATWKSLDLIESLLRLAEVGQYEQVKQLFSFPIKHCPDMLVLALLQINTSWHTLRHELISTLMPIFLGNHPNSAIILHYAWHGQGQSPSIRQLIMHAMAEWYMRGEQYDQAKLSRILDVAQDLKALSMLLNGTPFAFVIDLAALASRREYLKLDKWLTDKIREHGEPFIQACMTFLKRRCPSILGGLAPEKDQPKSAQLPPETLATMLACLQACAGSVSQELSETILTMVANCSNVMN
notes: human NOT1 (CNOT1), residues D4–N682; The purification of NOT1-N is not described; source: E. coli BL21 (DE3) Star, purified
B1: the binding result in experiment [1] is “binds”.

B2: GST-Hs NOT11-C (residues D257–D498) (domain or fragment)
chain: not shown
notes: human NOT11 (CNOT11), residues D257–D498; The GST tag is HRV3C-cleavable (plasmid pnEA-pG); also called GST-NOT11-C; NOT11 construct lacking the NOT11N domain; source: E. coli BL21 (DE3) Star, purified (glutathione agarose, HiTrap Q, Superdex 200); not shown: GST, N-terminal, kept
Turning to B2, the binding result in experiment [2] and in experiment [3] was “binds” each time.

The values are drawn from PMC10352241, “Structure and assembly of the NOT10:11 module of the CCR4-NOT complex” (Communications Biology, 2023).
